Results reported in patent publication EP1987837A1 (Technische Universität Dresden Medizinische Fakultät Carl …, dated 2008).

Assays:
[1] = target: endogenous β2-syntrophin (rat) (UniProt P01322); test: cell-based or functional assay
35S-Luciferase = target: T1, 35S-Luciferase (firefly, UniProt P08659 1-550 = luciferase, 35S-methionine labelled); test: GST pull-down, SDS-PAGE and autoradiography
T1 construct: Control protein in the pull-down assays; also called firefly luciferase; control protein
T1 sequence (P08659 whole entry): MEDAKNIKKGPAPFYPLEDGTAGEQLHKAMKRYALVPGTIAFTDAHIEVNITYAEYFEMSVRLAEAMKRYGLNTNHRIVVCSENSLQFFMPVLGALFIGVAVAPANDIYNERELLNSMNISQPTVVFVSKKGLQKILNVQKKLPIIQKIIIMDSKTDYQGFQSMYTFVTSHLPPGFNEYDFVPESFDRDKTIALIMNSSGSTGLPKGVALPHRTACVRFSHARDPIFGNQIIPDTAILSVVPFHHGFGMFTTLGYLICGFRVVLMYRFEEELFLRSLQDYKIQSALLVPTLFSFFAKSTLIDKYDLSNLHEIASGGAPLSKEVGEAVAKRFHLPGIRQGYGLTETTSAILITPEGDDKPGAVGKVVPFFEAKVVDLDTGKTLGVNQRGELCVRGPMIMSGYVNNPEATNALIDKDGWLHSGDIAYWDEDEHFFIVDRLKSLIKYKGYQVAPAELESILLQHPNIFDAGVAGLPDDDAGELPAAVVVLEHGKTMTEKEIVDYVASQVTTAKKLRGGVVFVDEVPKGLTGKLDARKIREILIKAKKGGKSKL

35S-ICA512601-979 = target: T2, 35S-ICA512601-979 (Homo sapiens (Human), UniProt Q16849 601-979, 35S-methionine labelled); test: GST pull-down, SDS-PAGE and autoradiography
T2 construct: also called cytoplasmic portion of ICA512
T2 sequence: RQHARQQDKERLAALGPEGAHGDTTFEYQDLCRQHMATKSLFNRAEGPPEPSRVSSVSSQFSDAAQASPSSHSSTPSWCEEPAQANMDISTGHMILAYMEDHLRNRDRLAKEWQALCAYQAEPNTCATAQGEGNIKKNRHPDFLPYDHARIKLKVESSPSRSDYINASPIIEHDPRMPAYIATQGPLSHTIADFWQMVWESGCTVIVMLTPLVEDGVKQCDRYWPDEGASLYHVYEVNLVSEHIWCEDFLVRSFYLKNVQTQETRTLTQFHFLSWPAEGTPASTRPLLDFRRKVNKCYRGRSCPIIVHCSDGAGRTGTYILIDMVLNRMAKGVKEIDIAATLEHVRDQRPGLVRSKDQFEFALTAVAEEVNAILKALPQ

35S-ICA512700-979 = target: T3, 35S-ICA512700-979 (Homo sapiens (Human), UniProt Q16849 700-979, 35S-methionine labelled); test: GST pull-down, SDS-PAGE and autoradiography
T3 construct: In vitro transcribed and translated from pET28a; also called PTP portion of ICA512
T3 sequence: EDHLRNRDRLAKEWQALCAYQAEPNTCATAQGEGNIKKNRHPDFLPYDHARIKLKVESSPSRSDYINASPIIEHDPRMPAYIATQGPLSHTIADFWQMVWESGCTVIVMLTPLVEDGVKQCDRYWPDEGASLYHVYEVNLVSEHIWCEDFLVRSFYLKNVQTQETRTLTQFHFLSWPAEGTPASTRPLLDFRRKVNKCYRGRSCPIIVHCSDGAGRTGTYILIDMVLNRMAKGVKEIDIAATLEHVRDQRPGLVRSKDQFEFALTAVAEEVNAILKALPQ

[2] = target: the molecule itself; test: co-immunoprecipitation from INS-1E cells

“ICA512-TMF (from UniProt Q63259 41-983) (receptor)” was tested, and the insulin stimulation index after knockdown of β2-syntrophin, compared to control cells [1] was 34%.

B1: GST-ICA512601-979 (other)
chain: RQHARQQDKERLAALGPEGAHGDTTFEYQDLCRQHMATKSLFNRAEGPPEPSRVSSVSSQFSDAAQASPSSHSSTPSWCEEPAQANMDISTGHMILAYMEDHLRNRDRLAKEWQALCAYQAEPNTCATAQGEGNIKKNRHPDFLPYDHARIKLKVESSPSRSDYINASPIIEHDPRMPAYIATQGPLSHTIADFWQMVWESGCTVIVMLTPLVEDGVKQCDRYWPDEGASLYHVYEVNLVSEHIWCEDFLVRSFYLKNVQTQETRTLTQFHFLSWPAEGTPASTRPLLDFRRKVNKCYRGRSCPIIVHCSDGAGRTGTYILIDMVLNRMAKGVKEIDIAATLEHVRDQRPGLVRSKDQFEFALTAVAEEVNAILKALPQ
notes: Bacterially expressed, coupled to glutathione sepharose beads (1 µg); The construct is only cited (Ort et al., 2000); not shown: glutathione S-transferase (GST) fusion partner
B1: no binding (35S-Luciferase).

B2: GST-ICA512800-979 (other)
chain: ESGCTVIVMLTPLVEDGVKQCDRYWPDEGASLYHVYEVNLVSEHIWCEDFLVRSFYLKNVQTQETRTLTQFHFLSWPAEGTPASTRPLLDFRRKVNKCYRGRSCPIIVHCSDGAGRTGTYILIDMVLNRMAKGVKEIDIAATLEHVRDQRPGLVRSKDQFEFALTAVAEEVNAILKALPQ
notes: Bacterially expressed, on glutathione sepharose beads; not shown: glutathione S-transferase (GST) fusion partner
B2: no binding (35S-ICA512601-979); no binding (35S-ICA512700-979).

B3: pro-ICA512 (receptor, rat, UniProt Q63259 41-983, looked up)
chain: ISAHGCLFDRRLCSHLEVCIQDGLFGQCQAGVGQARPLLQVTSPVLQRLQGVLRQLMSQGLSWHDDLTQYVISQEMERIPRLRPPEPHPRDRSGSVPRRAGPAGELLSQGNPTGSSPAVQGLSRPPGDGNGAGVGSPLSSLQAELLPPLLEHLLMPPQPPHPSLTYEPALLQPYLFQQFGSRDGSRGSESASGVVGHLAKAEDPVLFSRSLSKAILGTHSGHSFGDLTGPSPAQLFQDSGLLYMAQELPVPGRARAPRLPEEGGSSRAEDSSEGHEEEVLGGHGEKSPPQAVQADVSLQRLAAVLAGYGVELRQLTPEQLSTLLTLLQLLPKGTGRHLGGAVNGGADVKKTIEEQMQRGDTADARPPTPLLPGHPTASSTSIKVRQVLSPGFPEPPKTSSPLGISAVLLEKKSPLGQSQPTVVGQPSARPSAEEYGYIVTDQKPLSLVAGVKLLEILAEHVHMTSGSFINISVVGPAVTFRIRHNEQNLSLADVTQQAGLVKSELEAQTGLQILQTGVGQREESAAVLPRQAHGISPMRSLLLTLVALAGVAGLLVALAVALCMRHHSKQRDKERLAALGPEGAHGDTTFEYQDLCRQHMATKSLFNRAEGQPEPSRVSSVSSQFSDAAQASPSSHSSTPSWCEEPAQANMDISTGHMILAYMEDHLRNRDRLAKEWQALCAYQAEPNTCATAQGEGNIKKNRHPDFLPYDHARIKLKVESSPSRSDYINASPIIEHDPRMPAYIATQGPLSHTIADFWQMVWESGCTVIVMLTPLVEDGVKQCDRYWPDEGSSLYHVYEVNLVSEHIWCEDFLVRSFYLKNVQTQETRTLTQFHFLSWPAEGTPASTRPLLDFRRKVNKCYRGRSCPIIVHCSDGAGRTGTYILIDMVLNRMAKGVKEIDIAATLEHVRDQRPGLVRSKDQFEFALTAVAEEVNAILKALPQ
notes: In cells expressing ICA512-GFP, one partner may be the GFP-tagged form; also called pro-form of ICA512, glycoprotein of 110 kDa
B3: no binding [2].
